What all share (assay): FACS binding
A general note: Flow cytometry measures light scatter and fluorescence of single cells or particles in a stream.

In experiment [1] the target is CHOS-hCCR8-hCTLA-4 cell (human) (UniProt P16410).
For experiment [2] the target is unchanged. This is another data set of the same source.
Experiment [3] has the same target. The source holds these as a separate data set.

The record followed here is patent publication US20260234261A1.

Read-outs that look alike come from different tables or passages of the source.

CHOS-hCCR8-hCTLA-4 cell (human), sequence (P16410 36-223, chain 1 of 2): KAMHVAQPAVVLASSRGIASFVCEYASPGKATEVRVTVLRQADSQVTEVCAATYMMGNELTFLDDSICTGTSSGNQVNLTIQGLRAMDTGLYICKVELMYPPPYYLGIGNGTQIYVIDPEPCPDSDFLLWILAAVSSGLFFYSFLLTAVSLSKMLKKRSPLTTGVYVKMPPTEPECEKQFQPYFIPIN
CHOS-hCCR8-hCTLA-4 cell (human), sequence (P51685 whole entry, chain 2 of 2, further chain): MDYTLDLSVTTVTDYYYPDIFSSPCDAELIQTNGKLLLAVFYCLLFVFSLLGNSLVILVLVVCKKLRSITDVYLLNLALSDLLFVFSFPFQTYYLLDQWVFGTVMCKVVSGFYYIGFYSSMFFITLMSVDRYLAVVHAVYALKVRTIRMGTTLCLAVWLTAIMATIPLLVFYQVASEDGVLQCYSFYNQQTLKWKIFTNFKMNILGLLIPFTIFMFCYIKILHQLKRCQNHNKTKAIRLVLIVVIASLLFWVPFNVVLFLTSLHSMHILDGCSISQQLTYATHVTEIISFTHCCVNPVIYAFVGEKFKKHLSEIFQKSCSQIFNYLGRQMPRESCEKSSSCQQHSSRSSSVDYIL

On to Yervoy, for which the 50% effective concentration (EC50) was 722 pM in experiment [1], 750 pM in experiment [2] and 682 pM in experiment [3].

Usually EC50 stands for the concentration at which the effect is half-maximal. A high value points to a less potent agent.
